Data from article PMC12136191, “Structural basis for mTORC1 regulation by the CASTOR1-GATOR2 complex” (Research Square, 2025).

B1: MIOS, subunit within purified GATOR2 (natural protein)
chain: MSGTKPDILWAPHHVDRFVVCDSELSLYHVESTVNSELKAGSLRLSEDSAATLLSINSDTPYMKCVAWYLNYDPECLLAVGQANGRVVLTSLGQDHNSKFKDLIGKEFVPKHARQCNTLAWNPLDSNWLAAGLDKHRADFSVLIWDICSKYTPDIVPMEKVKLSAGETETTLLVTKPLYELGQNDACLSLCWLPRDQKLLLAGMHRNLAIFDLRNTSQKMFVNTKAVQGVTVDPYFHDRVASFYEGQVAIWDLRKFEKPVLTLTEQPKPLTKVAWCPTRTGLLATLTRDSNIIRLYDMQHTPTPIGDETEPTIIERSVQPCDNYIASFAWHPTSQNRMIVVTPNRTMSDFTVFERISLAWSPITSLMWACGRHLYECTEEENDNSLEKDIATKMRLRALSRYGLDTEQVWRNHILAGNEDPQLKSLWYTLHFMKQYTEDMDQKSPGNKGSLVYAGIKSIVKSSLGMVESSRHNWSGLDKQSDIQNLNEERILALQLCGWIKKGTDVDVGPFLNSLVQEGEWERAAAVALFNLDIRRAIQILNEGASSEKGDLNLNVVAMALSGYTDEKNSLWREMCSTLRLQLNNPYLCVMFAFLTSETGSYDGVLYENKVAVRDRVAFACKFLSDTQLNRYIEKLTNEMKEAGNLEGILLTGLTKDGVDLMESYVDRTGDVQTASYCMLQGSPLDVLKDERVQYWIENYRNLLDAWRFWHKRAEFDIHRSKLDPSSKPLAQVFVSCNFCGKSISYSCSAVPHQGRGFSQYGVSGSPTKSKVTSCPGCRKPLPRCALCLINMGTPVSSCPGGTKSDEKVDLSKDKKLAQFNNWFTWCHNCRHGGHAGHMLSWFRDHAECPVSACTCKCMQLDTTGNLVPAETVQP
notes: MIOS, subunit of GATOR2; codon optimized synthetic DNA; The MIOS chain of m1, written alone for the pairs that touch in the structure; also called front face MIOS; source: HEK293-GNTI cells, co-expressed with the other GATOR2 subunits, purified as part of GATOR2
B2: CASTOR1 S111A/D304A (apo-locked mutant) (natural protein)
chain: MELHILEHRVRVLSVARPGLWLYTHPLIKLLFLPRRSRCKFFSLTETPEDYTLMVDEEGFKELPPSEFLQVAEATWLVLNVSSHSGAAVQAAGVTKIARSVIAPLAEHHVAVLMLSTYQTDFILVREQDLSVVIHTLAQEFDIYREVGGEPVPVTRDDSSNGFPRTQHGPSPTVHPIQSPQNRFCVLTLDPETLPAIATTLIDVLFYSHSTPKEAASSSPEPSSITFFAFSLIEGYISIVMDAETQKKFPSDLLLTSSSGELWRMVRIGGQPLGFDECGIVAQIAGPLAAADISAYYISTFNFAHALVPEDGIGSVIEVLQRRQEGLAS
notes: CASTOR1 (arginine sensor) with S111A and D304A; codon optimized synthetic DNA; Homodimer in the structure; also called CASTOR1^apo; 6X-His-CASTOR1^apo; source: E. coli BL21(DE3), pET-28a+, purified (Ni-NTA, Superdex 200 gel filtration)

Columns and labels:
[1] = target: the molecule itself; assay: cryo-EM structure; purified GATOR2 at 0.45 mg/mL with 3-fold molar excess of CASTOR1^apo, 45 minutes on ice, frozen on grids; no Arg; Titan Krios
[2] = target: B1; assay: as above; settings: both partners purified

Row | binding result [2] | Binder | binding result [1]
1 |  | B1 | binds
2 | binds | B2 | binds
